Consider 6 molecules from patent US20200115466A1 (NANOCRUISE PHARMACEUTICAL, published 2020).

Positions count from the first letter of the chain named.

B1: humanized 16A antibody hVH2hVL2 (antibody, human IgG1, lambda, V domains shown)
VH: EVQLVESGGGLVQPGGSLRLSCAVSGIDFSRYWMSWVRQAPGKGLEWVGEITPDSNTINYVPSVKGRFTISRDNAKNSLYLQMNSLRAEDTAVYYCASYYEGFAYWGQGTLVTVSS
VL: QAVVTQEPSLTVSPGGTVTLTCGSSTGAVITSNYANWVQQKPGQAPTGLIGRTYNKVPWTPARFSGSLLGDKAALTLSGAQPEDEAEYFCALWYSNHFVFGGGTKLTVLG
notes: CDR-grafted humanized antibody; also called Humanized HC 2 (H2988) with Humanized LC2 (L2988)
B2: humanized 16A antibody hVH4hVL2 (antibody, human IgG1, lambda, V domains shown)
VH: B1 VH with S17F, A23V, R67N, T69G, Y80F, Y95F
VL: B1 VL
notes: CDR-grafted humanized antibody; also called Humanized HC 4 (H2990) with Humanized LC2 (L2988)
B3: humanized 16A antibody hVH5hVL2 (antibody, human IgG1, lambda, V domains shown)
VH: B1 VH with A23V, T69G, Y95F
VL: B1 VL
notes: CDR-grafted humanized antibody; also called Humanized HC 5 (H2991) with Humanized LC2 (L2988)
B4: humanized 16A antibody hVH3hVL2 (antibody, human IgG1, lambda, V domains shown)
VH: B1 VH with Q3K, Y95F
VL: B1 VL
notes: CDR-grafted humanized antibody; also called Humanized HC 3 (H2989) with Humanized LC2 (L2988)
B5: humanized 16A antibody hVH1hVL2 (antibody, human IgG1, lambda, V domains shown)
VH: B1 VH with G49A
VL: B1 VL
notes: CDR-grafted humanized antibody; also called Humanized HC 1 (H2987) with Humanized LC2 (L2988)
B6: mouse-human chimeric antibody 16A (antibody, human IgG1, lambda, V domains shown)
VH: EVKLHQSGGGLVQPGGFLKISCVVSGIDFSRYWMSWVRRAPGKGLEWIGEITPDSNTINYVPSLKDNFGISRDNAKNTLFLQMTKVRSEDTALYFCASYYEGFAYWGQGTLVTVSA
VL: QAVVTQESALTTSPGETVTLTCRSSTGAVITSNYANWVQEKPDHLFTGLIGRTYNRVPGVPARFSGSLIGDKAALTITGAQTEDEAIYFCALWYSNHFVFGGGTKLTVLG
notes: Murine 16A VH and VL joined to human IgG1 constant region and human lambda 2 light chain; also called chimeric 16A; 16A chimeric antibody

T1 sequence (P15941 24-1255 limits assumed): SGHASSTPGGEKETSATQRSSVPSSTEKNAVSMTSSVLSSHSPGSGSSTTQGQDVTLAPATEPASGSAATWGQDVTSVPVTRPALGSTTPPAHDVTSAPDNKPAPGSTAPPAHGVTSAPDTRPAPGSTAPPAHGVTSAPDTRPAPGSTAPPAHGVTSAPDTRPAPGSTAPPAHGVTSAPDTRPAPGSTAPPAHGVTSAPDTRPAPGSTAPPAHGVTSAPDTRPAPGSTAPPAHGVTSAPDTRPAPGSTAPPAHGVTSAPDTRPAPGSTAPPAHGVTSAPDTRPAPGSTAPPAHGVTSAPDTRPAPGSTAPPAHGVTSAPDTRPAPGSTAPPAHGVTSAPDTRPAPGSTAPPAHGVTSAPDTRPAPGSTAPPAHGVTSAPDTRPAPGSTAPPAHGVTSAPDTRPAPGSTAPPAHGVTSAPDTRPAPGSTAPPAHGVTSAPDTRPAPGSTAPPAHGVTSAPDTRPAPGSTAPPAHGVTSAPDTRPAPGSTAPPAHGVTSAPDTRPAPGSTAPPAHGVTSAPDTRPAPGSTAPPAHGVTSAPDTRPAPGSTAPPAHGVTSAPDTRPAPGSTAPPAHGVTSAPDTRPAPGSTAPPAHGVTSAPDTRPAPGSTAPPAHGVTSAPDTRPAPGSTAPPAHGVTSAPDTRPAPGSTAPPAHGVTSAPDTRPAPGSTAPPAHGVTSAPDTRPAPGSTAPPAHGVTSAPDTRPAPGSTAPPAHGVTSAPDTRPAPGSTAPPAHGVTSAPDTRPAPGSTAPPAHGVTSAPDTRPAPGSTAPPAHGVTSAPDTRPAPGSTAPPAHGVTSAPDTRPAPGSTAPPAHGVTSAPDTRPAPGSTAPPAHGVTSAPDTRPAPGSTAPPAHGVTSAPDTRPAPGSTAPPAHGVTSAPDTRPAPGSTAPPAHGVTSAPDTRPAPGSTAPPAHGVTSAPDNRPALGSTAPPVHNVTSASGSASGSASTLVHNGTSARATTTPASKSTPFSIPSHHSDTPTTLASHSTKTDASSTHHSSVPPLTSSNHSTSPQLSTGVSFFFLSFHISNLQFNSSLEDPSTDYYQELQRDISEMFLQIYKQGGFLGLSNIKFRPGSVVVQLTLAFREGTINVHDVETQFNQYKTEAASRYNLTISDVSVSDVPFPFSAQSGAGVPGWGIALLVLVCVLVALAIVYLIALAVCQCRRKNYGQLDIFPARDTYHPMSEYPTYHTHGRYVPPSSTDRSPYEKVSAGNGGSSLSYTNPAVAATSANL

This test concerns the target T1, MUC1 on the surface of lung cancer cell line H838 (UniProt P15941 24-1255, limits assumed, tumour-type glycosylation (GalNAc epitope RPAPGS(GalNAc)TAPPAHG), as the filing describes the antigen).
T1 construct: whole, on cells; No MUC1-negative control of H838 is reported; also called antigen
Description: flow cytometry, surface staining of H838 cells, PE anti-human IgG. The procedure: Lung cancer cell line H838 was obtained from the University of Texas M.D. Anderson Cancer Center. Cells were cultured in 10% RPMI 1640 medium. Different concentrations of chimeric antibody or humanized antibodies were used as primary antibody for staining, washed three times with PBS, then incubated with PE-conjugated mouse-anti-human IgG (BioLegend). The stained cells were analyzed by FACS Caliber flow cytometer (BD Biosciences, San Jose, Calif.).
For orientation: Flow cytometry measures light scatter and fluorescence of single cells or particles in a stream.
As to B1, the “Minimum concentration of binding to lung cancer cell line H838” value (“Minimum concentration of binding” below) came out at 0.025 µg/mL.

As for B2, the “Minimum concentration of binding” value was 0.05 µg/mL.

In the case of B3, the “Minimum concentration of binding” value is 0.025 µg/mL.

As to B4, the “Minimum concentration of binding” value came out at 0.025 µg/mL.

As for B5, the “Minimum concentration of binding” value was found to be 0.025 µg/mL.

In the case of B6, the “Minimum concentration of binding” value is 0.0125 µg/mL.
